Measured values taken from PMC5970976.

Target: CHIKV virus-like particles (VLPs, strain 37997) (chikungunya virus (strain 37997))
Experiment: SPR

CHIKV virus-like particles (VLPs, strain 37997) (chikungunya virus (strain 37997)), sequence (Q5XXP3 326-748 limits assumed, chain 1 of 2): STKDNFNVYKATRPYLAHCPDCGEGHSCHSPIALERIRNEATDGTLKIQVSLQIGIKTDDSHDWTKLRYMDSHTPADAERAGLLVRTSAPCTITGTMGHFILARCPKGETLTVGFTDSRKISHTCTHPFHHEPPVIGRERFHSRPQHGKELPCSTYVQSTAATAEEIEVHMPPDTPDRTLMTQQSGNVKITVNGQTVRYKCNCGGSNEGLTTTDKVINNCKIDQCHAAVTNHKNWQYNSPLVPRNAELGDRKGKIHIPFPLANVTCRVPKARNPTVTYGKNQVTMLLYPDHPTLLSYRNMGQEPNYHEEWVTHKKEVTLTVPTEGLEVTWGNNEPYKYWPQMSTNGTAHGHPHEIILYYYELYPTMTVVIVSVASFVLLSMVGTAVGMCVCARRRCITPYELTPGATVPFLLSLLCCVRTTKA
CHIKV virus-like particles (VLPs, strain 37997) (chikungunya virus (strain 37997)), sequence (Q5XXP3 810-1248 limits assumed, chain 2 of 2): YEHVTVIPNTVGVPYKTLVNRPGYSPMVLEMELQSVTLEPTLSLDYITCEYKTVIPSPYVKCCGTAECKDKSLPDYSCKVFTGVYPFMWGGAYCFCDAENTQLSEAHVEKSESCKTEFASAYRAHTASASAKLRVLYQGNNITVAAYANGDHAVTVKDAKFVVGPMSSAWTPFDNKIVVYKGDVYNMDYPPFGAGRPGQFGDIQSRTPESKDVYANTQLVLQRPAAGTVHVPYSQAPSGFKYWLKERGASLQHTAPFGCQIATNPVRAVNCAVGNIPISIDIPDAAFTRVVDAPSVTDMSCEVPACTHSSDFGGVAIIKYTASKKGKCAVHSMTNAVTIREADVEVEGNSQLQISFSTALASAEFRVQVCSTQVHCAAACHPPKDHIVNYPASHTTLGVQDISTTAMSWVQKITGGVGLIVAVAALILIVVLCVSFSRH

Q: Which Kd does the source give for “Mxra8 cleaved from the IgG backbone (recombinant Mxra8 from Mxra8-HRV-Fc) (from UniProt Q9DBV4 22-336) (domain or fragment)” here?
A: The Kd was 0.2 µM.
